# Laboratory results taken from US20210403579A1 (DELINIA, published 2021).
# T1: Human ST2 (human, UniProt Q01638 19-328, limits assumed)
# T1 construct: also called human ST2 protein; Interleukin 1 receptor-like 1
# T1 sequence (looked up): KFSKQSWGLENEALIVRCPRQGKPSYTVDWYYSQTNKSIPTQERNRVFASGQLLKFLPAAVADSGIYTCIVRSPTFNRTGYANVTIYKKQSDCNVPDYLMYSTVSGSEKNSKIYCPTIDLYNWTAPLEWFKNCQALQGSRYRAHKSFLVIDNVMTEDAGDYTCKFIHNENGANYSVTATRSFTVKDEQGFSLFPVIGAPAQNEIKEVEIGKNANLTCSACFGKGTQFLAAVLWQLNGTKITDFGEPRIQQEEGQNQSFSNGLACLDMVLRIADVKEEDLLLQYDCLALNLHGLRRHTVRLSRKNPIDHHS
# Biological target: T1, Human ST2
# Assay: SPR (Carterra), antibody immobilized, ST2 analyte
# Description: Binding of the reformatted human ST2 antibodies to the human and mouse ST2 proteins was evaluated by surface plasmon resonance (SPR), using a high throughput antibody screening and characterization platform from Carterra (Salt Lake City, Utah).
Binder,Kd [nM],koff [s⁻¹],kon [M⁻¹ s⁻¹]
"Human ST2 IgG1 Antibody 21 (antibody, V domains shown, IgG1; also called ST2 Antibody 21) VH: QVQLVQSGAEVKKPGASVKVSCKASGYTFSNHYMHWVRQAPGQGLEWMGWVNPTSGNTGYAQKFQGRVTMTRDTSTSTVYMELSSLRSEDTAVYYCARDLGVTYFDLWGRGTLVTVSS VL: DIQMTQSPSSLSASVGDRVTITCRASQGISSWLAWYQQKPGKAPKLLIYEASHLETGVPSRFSGSGSGTDFTLTISSLQPEDFATYYCLQDYNYPLTFGGGTKVEIKR",805,0.017,21000
"Human ST2 IgG1 Antibody 23 (antibody, V domains shown, IgG1; also called ST2 Antibody 23) VH: EVQLLESGGGLVKPGGSLRLSCAASGFTFSSYWMHWVRQAPGKGLEWVSSISSRSSYIYYADSVKGRFTISRDDSKNTLYLQMNSLKTEDTAVYYCAREGNGMDVWGQGTTVTVSS VL: DIQMTQSPSSLSASVGDRVTITCQASQDIGSYLNWYQQKPGKAPKLLIYAASSLQSGVPSRFSGSGSGTDFTLTISSLQPEDFATYYCLQSYSTPFTFGGGTKVEIKR",688,0.1,150000
"Human ST2 IgG1 Antibody 26 (antibody, V domains shown, IgG1; also called ST2 Antibody 26) VH: QVQLVQSGAEVKKPGSSVKVSCKASGYTFSDYYMHWVRQAPGQGLEWMGGILPVFGTATYAQKFQGRVTITADESTSTAYMELSSLRSEDTAVYYCARGFGYFDYWGQGTLVTVSS VL: not shown",264,0.14,530000
"Human ST2 IgG1 Antibody 24 (antibody, V domains shown, IgG1; also called ST2 Antibody 24) VH: QVQLVQSGAEVKKPGSSVKVSCKASGGTFSSYAISWVRQAPGQGLEWMGGIIPIFGTANYAQKFQGRVTITADESTSTAYMELSSLRSEDTAVYYCAKTPLGRGYGLFDYWGQGTLVTVSS VL: not shown",1200,0.055,45000
"Human ST2 IgG1 Antibody 25 (antibody, V domains shown, IgG1; also called ST2 Antibody 25) VH: QVQLVQSGAEVKKPGSSVKVSCKASGGTFSNYAISWVRQAPGQGLEWMGWISAYNGNTNYAQKFQGRVTMTRDTSTSTVYMELSSLRSEDTAVYYCARSTNALDYWGQGTLVTVSS VL: DIQMTQSPSSLSASVGDRVTITCRASQGIRSNLDWYQQKPGKAPKLLISIVSNLGSGVPSRFSGSGSGTDFTLTISSLQPEDFATYYCLQHNSNPPTFGGGTKVEIKR",193,0.03,150000

# More lines, in order of falling Kd, values ahead:
Kd [nM],koff [s⁻¹],kon [M⁻¹ s⁻¹],Binder
426,0.066,160000,"Human ST2 IgG1 Antibody 28 (antibody, V domains shown, IgG1; also called ST2 Antibody 28) VH: QVQLVQSGAEVKKPGSSVKVSCKASGGTFGNYGINWVRQAPGQGLEWMGGIIPVFGTTNYAQKFQGRVTITADESTSTAYMELSSLRSEDTAVYYCARGLRYYYGMDVWGQGTTVTVSS VL: DIVMTQSPLSLPVTPGEPASISCRSSQSLLHSNGYNYLDWYLQKPGQSPQLLIYGASTLQSGVPDRFSGSGSGTDFTLKISRVEAEDVGVYYCMQALQNPLTFGGGTKVEIKR"
106,0.048,450000,"Human ST2 IgG1 Antibody 27 (antibody, V domains shown, IgG1; also called ST2 Antibody 27) VH: QVQLVQSGAEVKKPGASVKVSCKASGYTFTGQYMHWVRQAPGQGLEWMGIINPSGGSTSYAQKFQGRVTMTRDTSTSTVYMELSSLRSEDTAVYYCAGSYYPYYYYGMDVWGQGTTVTVSS VL: DIQMTQSPSSLSASVGDRVTITCRASQNIGYFLHWYQQKPGKAPKLLIYAASSLQSGVPSRFSGSGSGTDFTLTISSLQPEDFATYYCQQSYSPPLTFGGGTKVEIKR"
90,0.048,530000,"Human ST2 IgG1 Antibody 22 (antibody, V domains shown, IgG1; also called ST2 Antibody 22) VH: EVQLLESGGGLVQPGGSLRLSCAASGFKFRTFWMNWVRQAPGKGLEWVSVISNGGDATHYADSVKGRFTISRDNSKNTLYLQMNSLRAEDTAVYYCARVDCSGGSCYLGYWGQGTLVTVSS VL: DIQMTQSPSSLSASVGDRVTITCRASESIGRYLNWYQQKPGKAPKLLIYGTSNLESGVPSRFSGSGSGTDFTLTISSLQPEDFATYYCQQSYSTPPTFGQGTKVEIKR"
